Data from US20020160011A1, “ADJUVANT COMPOSITIONS FOR VACCINES” (priority 1997, published 2002).

What was measured:
[1] = Ability of other cytokines to enhance the effect of the QS21/MPL adjuvant; conditions: cytokine added in place of IL-12
[2] = Systemic toxicity of locally injected IL12 in immunised mice; format: in vivo

## GM-CSF: other cytokine tested with the QS21/MPL adjuvant
[1]
  enhancement of the effect of the QS21/MPL adjuvant: unable to enhance

## IL-6: other cytokine tested with the QS21/MPL adjuvant
[1]
  enhancement of the effect of the QS21/MPL adjuvant: unable to enhance

## IFN-γ: other cytokine tested with the QS21/MPL adjuvant
[1]
  enhancement of the effect of the QS21/MPL adjuvant: unable to enhance

B1: IL-7: other cytokine tested with the QS21/MPL adjuvant (protein, UniProt P13232 26-177, looked up)
Interleukin-7: DCDIEGKDGKQYESVLMVSIDQLLDSMKEIGSNCLNNEFNFFKRHICDANKEGMFLFRAARKLRQFLKMNSTGDFDLHLLKVSEGTTILLNCTGQVKGRKPAALGEAQPTKSLEENKSLKEQKKLNDLCFLKRLLQEIKTCWNKILMGTKEH
[1]
  enhancement of the effect of the QS21/MPL adjuvant: unable to enhance

B2: IL12: murine IL12 purified from the supernatant of transfected P1HTR cells; heterodimeric cytokine (protein, UniProt P43431 23-215; P43432 23-335, looked up)
Interleukin-12 subunit alpha: RVIPVSGPARCLSQSRNLLKTTDDMVKTAREKLKHYSCTAEDIDHEDITRDQTSTLKTCLPLELHKNESCLATRETSSTTRGSCLPPQKTSLMMTLCLGSIYEDLKMYQTEFQAINAALQNHNHQQIILDKGMLVAIDELMQSLNHNGETLRQKPPVGEADPYRVKMKLCILLHAFSTRVVTINRVMGYLSSA
Interleukin-12 subunit beta: MWELEKDVYVVEVDWTPDAPGETVNLTCDTPEEDDITWTSDQRHGVIGSGKTLTITVKEFLDAGQYTCHKGGETLSHSHLLLHKKENGIWSTEILKNFKNKTFLKCEAPNYSGRFTCSWLVQRNMDLKFNIKSSSSSPDSRAVTCGMASLSAEKVTLDQRDYEKYSVSCQEDVTCPTAEETLPIELALEARQQNKYENYSTSFFIRDIIKPDPPKNLQMKPLKNSQVEVSWEYPDSWSTPHSYFSLKFFVRIQRKKEKMKETEEGCNQKGAFLVEKTSTEVQCKGGNVCVQAQDRYYNSSCSKWACVPCRVRS
[2]; decreased IL12 dose ('at that dose', b48: 10ng or 30 ng as printed)
  systemic toxicity: largely reduced but not totally absent
[2]; high dose of IL12 (100ng (1000U)/mouse/day), P1A experiment
  systemic toxic effects: we observed systemic toxic effects
[2]; high dose of IL12 (1μg/mouse/day), injected locally, P198 experiments
  systemic toxicity: systemic toxicity with symptoms similar to those observed in a LPS shock
